In PMC7580981:

Target: IBV polymerase trimeric complex (Pol3): PA-His, PB1, PB2 (influenza B virus)
Assay: SPR; Biacore T200; […]; running buffer HBS-EP+; 1:1 fit model

Sequence of human ANP32A, purified (GST cleaved) (P39687 whole entry): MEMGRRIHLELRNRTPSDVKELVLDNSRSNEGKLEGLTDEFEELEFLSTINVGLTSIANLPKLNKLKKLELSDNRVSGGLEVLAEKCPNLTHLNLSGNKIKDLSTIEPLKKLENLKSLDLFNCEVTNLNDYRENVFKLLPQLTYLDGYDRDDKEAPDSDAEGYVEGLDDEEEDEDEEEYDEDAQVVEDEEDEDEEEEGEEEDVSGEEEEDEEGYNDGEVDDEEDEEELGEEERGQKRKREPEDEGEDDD

human ANP32A with the 33-amino-acid insert, purified (GST cleaved)
Kd: 101 nM

chicken ANP32A, purified (GST cleaved) (natural protein)
KD of chANP32A relative to that of huANP32A (fold): 3 fold

human ANP32A, purified (GST cleaved) (from UniProt P39687 1-249) (natural protein)
Kd: 54.2 nM
ka relative to chANP32A and huANP32A+33 (fold): 2 fold
